# Source: PMC8396340
# Molecular target: Transferrin receptor 1 (TfR, CD71) (Homo sapiens) (UniProt P02786)
# Assay: flow cytometry cell binding
# Details: 5 mM Mg2+, PBS, 4.5 g/L glucose, 5 mM MgCl2, 1 mg/mL BSA, 0.1 mg/mL herring sperm DNA, 30 min on ice (4 C), intact cells
# [1] = HCT-8T cells (cell line inferred)
# Sequence of UniProt P02786 (P02786 whole entry): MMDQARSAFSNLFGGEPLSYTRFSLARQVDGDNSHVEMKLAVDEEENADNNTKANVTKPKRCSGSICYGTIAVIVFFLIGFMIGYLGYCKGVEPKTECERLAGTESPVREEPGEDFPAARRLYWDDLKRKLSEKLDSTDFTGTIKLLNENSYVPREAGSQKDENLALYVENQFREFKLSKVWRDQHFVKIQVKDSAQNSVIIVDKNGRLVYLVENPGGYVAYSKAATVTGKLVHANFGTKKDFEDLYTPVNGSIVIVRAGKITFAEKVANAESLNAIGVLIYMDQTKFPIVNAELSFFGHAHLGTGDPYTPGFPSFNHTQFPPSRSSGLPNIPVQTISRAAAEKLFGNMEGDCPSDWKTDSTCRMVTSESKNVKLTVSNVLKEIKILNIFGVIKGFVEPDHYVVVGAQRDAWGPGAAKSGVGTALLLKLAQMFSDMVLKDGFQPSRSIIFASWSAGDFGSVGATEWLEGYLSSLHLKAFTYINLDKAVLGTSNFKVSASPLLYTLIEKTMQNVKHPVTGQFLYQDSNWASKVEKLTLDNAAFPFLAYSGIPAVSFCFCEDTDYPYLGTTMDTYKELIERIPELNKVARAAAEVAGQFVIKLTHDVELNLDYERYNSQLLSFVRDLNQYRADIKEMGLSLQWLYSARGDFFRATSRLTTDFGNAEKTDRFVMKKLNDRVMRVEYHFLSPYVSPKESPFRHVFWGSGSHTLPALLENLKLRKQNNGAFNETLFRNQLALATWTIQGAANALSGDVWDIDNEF
Sequence,Kd [1],Kd (HeLa cells),Kd (Jurkat cells)
AAGGAGCAGCGTGGAGGATAGGGATTCTGTTGGTCGGCTGGTTGGTATCCTTAGGGTGTGTCGTCGTGGT [HG1],6.48 nM,–,–
GGATAGGGATTCTGTTGGTCGGCTGGTTGGTATCC [HG1-9],5.4 nM,19.8 nM,11 nM
